Data from the DeepSol protein solubility set.

Experiment: soluble on expression in E. coli; label from the status in PepcDB or PDB records

Sequence | soluble on expression in E. coli
MDKVKAARSLIQEALAQSQNPCFTCSFQAEDVVVLHLLLKERPEIPVLFLDTGYHFPEVYAYRDELQKRLGFRLVNLTPALSREEQERLYGKLYETDPGRCCALRKVEPLFAALEAHDTWFTGLRREQSPTRRNLEPQEEARLPSGHRLKKVNPLYDWTLKEVFAYLAVEDLPYLPLYDQGYLSIGCAPCTAKPLDPSDPRSGRWAGKGKLECGIHLHGKEG | soluble
MDLASNLGGKIDKSDVLTAVEKYEQYHVFHGGNEEERKANYTDMVNKYYDLATSFYEYGWGESFHFAQRWKGESLRESIKRHEHFLALQLGIQPGQKVLDVGCGIGGPLREIARFSNSVVTGLNNNEYQITRGKELNRLAGVDKTCNFVKADFMKMPFPENSFDAVYAIEATCHAPDAYGCYKEIYRVLKPGQCFAAYEWCMTDAFDPDNAEHQKIKGEIEIGDGLPDIRLTTKCLEALKQAGFEVIWEKDLAKDSPVPWYLPLDKNHFSLSSFRLTAVGRFITKNMVKILEYIRLAPQGSQRVSNFLEQAAEGLVDGGRREIFTPMYFFLARKPE | soluble
MDLHSGLPYWVVKNSLLDYFHPLEDDFSTDIVVVGSGITGALMVHELCSAGLRCCMVDKRSIATGSSIASTALLQYEIDVPLCEMAEIIGEDNAVSAYRASLASIADIEKVLKETGVDADFEKRPSLFYASIPKDIELIEKEYVIRKKHNLPVRLLGKEEIKKLYNIEVPGNALLNRVSAQMDAYKATTGLLLYHMKKDGLEIFTHTGVTECVEMPEGYIIETDRGHKIECKYVIIASGFEAGKFLSREIMDLTSTYALVSHPVDSKDLWPEQCLIWETAEPYLYIRTTRGNRIIVGGEDEKFSDPERRDALLRKKTLVLEKKFRRLFPSIPFKTEMAWCGTFSTTKDGLPFIGNCPDKDRMFFDLGYGGNGITFSMIGAQIICKKLQGIDDERGRIFGYERIEKYWLEHHHHHH | not soluble
MDLLFGRRKTPEELLRQNQRALNRAMRELDRERQKLETQEKKIIADIKKMAKQGQMDAVRIMAKDLVRTRRYVRKFVLMRANIQAVSLKIQTLKSNNSMAQAMKGVTKAMGTMNRQLKLPQIQKIMMEFERQAEIMDMKEEMMNDAIDDAMGDEEDEEESDAVVSQVLDELGLSLTDELSNLPSTGGSLSVAAGGKKAEAAASALADADADLEERLKNLRRD | soluble
MDLLKKEYTGITYISGPLLFVENAKDLAYGAIVDIKDGTGRVRGGQVIEVSEEYAVIQVFEETTGLDLATTSVSLVEDVARLGVSKEMLGRRFNGIGKPIDGLPPITPEKRLPITGLPLNPVARRKPEQFIQTGISTIDVMNTLVRGQKLPIFSGSGLPANEIAAQIARQATVRPDLSGEGEKEEPFAVVFAAMGITQRELSYFIQEFERTGALSRSVLFLNKADDPTIERILTPRMALTVAEYLAFEHDYHVLVILTDMTNYCEALREIGAAREEIPGRRGYPGYMYTDLATIYERAGVVEGKKGSVTQIPILSMPDDDRTHPIPDLTGYITEGQIQLSRELHRKGIYPPIDPLPSLSRLMNNGVGKGKTREDHKQVSDQLYSAYANGVDIRKLVAIIGEDALTENDRRYLQFADAFERFFINQGQQNRSIEESLQIAWALLSMLPQGELKRISKDHIGKYYGQKLEEIWGAPQALD | soluble
MDLPQEIETNMECPVCGSLLYLLTYDTDIPYEGRISIYTYQCKKCMYRKTEVYQEEEKNPVRITLKIESPEDLKTLVYRSRKADIYIPEIEASIDSAEYANGEITTVEGIIYRIGEKLDLLSYDDEEKEAVKEVRKKIDDIINGYFGSFTLIITDESGKSVIESEKAITEKILEHHHHHH | not soluble
MDLRDLKTFLHLAESRHFGRSARAMHVSPSTLSRQIQRLEEDLGQPLFVRDNRTVTLTEAGEELRVFAQQTLLQYQQLRHTLDQQGPSLSGELHIFCSVTAAYSHLPPILDRFRAEHPSVEIKLTTGDAADAMEKVVTGEADLAIAGKPETLPGAVAFSMLENLAVVLIAPALPCPVRNQVSVDKPDWSTVPFIMADQGPVRRRIELWFRRHKISNPQIYATVGGHEAMVSMVALGCGVALLPEVVLENSPEPVRNRVMILERSDEKTPFELGVCAQKKRLHEPLIDAFWKILPN | soluble
MDLSEDQIRGLPHHELLGHFLQMREEFNEFQTSSAEIEKMMDSELDDLKTQLKKAETRVQQMTTEQIRNKDRQDDSRVQFAQVEEQLRRENSHLHEQCESQRERIRKLEQRNDVLETSERNKEYLASDLGSKLDHAIEKIAMLESELYERQVAAEEMHRLREEQLRTTERPRLIVEPLRNDPEILPDEPSPGPSKEEFKMSSEDVFMEDVQHHEDVRMEETIAKIDEVRIDDNKNIQEKSQRVSTGTGAGACINRIVKDLMTKVERLDSILSTIRVSNNSSNNNSSHLTTTRA | not soluble
